Measurements published in the supplement of paper PMC9112550, “Optimization of the antimicrobial peptide Bac7 by deep mutational scanning” (BMC Biology, 2022).

System: Escherichia coli TOP10
Experiment: shrunken log2 fold change of peptide-encoding DNA abundance (4.5 h post-induction vs induction); higher = less antimicrobial activity (less host growth inhibition)
Conditions: time post-induction: 4.5 h; library: site-saturation at positions 5, 18, 19, 20
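Note: peptides expressed intracellularly from a pBAD plasmid library in pooled LB shake-flask culture, induced with 0.3% L-arabinose, DNA abundance read by NGS, three biological replicates, DESeq2 with apeglm shrinkage.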

| Sequence | shrunken log2 fold change |
| --- | --- |
| RRIRSRPPRLPRPRPRPQFFPRP | -0.158 |
| RRIRVRPPRLPRPRPRPYERPRP | 0.0458 |
| RRIRNRPPRLPRPRPRPYKGPRP | -1.13 |
| RRIRCRPPRLPRPRPRPMAFPRP | -0.22 |
| RRIRYRPPRLPRPRPRPWKAPRP | -0.0135 |
| RRIRKRPPRLPRPRPRPCQFPRP | -0.117 |
| RRIRARPPRLPRPRPRPRIVPRP | 0.547 |
| RRIRERPPRLPRPRPRPRDMPRP | 0.0375 |
| RRIRNRPPRLPRPRPRPPLKPRP | 0.0326 |
| RRIRVRPPRLPRPRPRPFFAPRP | 0.238 |
| RRIRARPPRLPRPRPRPIMLPRP | -0.43 |
| RRIRPRPPRLPRPRPRPRMDPRP | 0.176 |
| RRIRVRPPRLPRPRPRPVQSPRP | -0.104 |
| RRIRIRPPRLPRPRPRPSWFPRP | -0.529 |
| RRIRRRPPRLPRPRPRPRFEPRP | 0.582 |
| RRIRNRPPRLPRPRPRPTYTPRP | -0.303 |
| RRIRKRPPRLPRPRPRPAVYPRP | -0.0285 |
| RRIRPRPPRLPRPRPRPDFIPRP | -0.233 |
| RRIRIRPPRLPRPRPRPDTPPRP | 0.0459 |
| RRIRTRPPRLPRPRPRPDPAPRP | 0.0522 |

| Sequence | shrunken log2 fold change |
| --- | --- |
| RRIRLRPPRLPRPRPRPVRKPRP | -0.0647 |
| RRIRRRPPRLPRPRPRPLFAPRP | 0.755 |
| RRIRTRPPRLPRPRPRPQTPPRP | 0.25 |
| RRIRYRPPRLPRPRPRPANKPRP | -0.278 |
| RRIRMRPPRLPRPRPRPRSLPRP | 0.27 |
| RRIRGRPPRLPRPRPRPMHLPRP | 0.186 |
| RRIRMRPPRLPRPRPRPDYEPRP | -0.0178 |
| RRIRHRPPRLPRPRPRPCRYPRP | -0.0657 |
| RRIRGRPPRLPRPRPRPVRNPRP | 0.308 |
| RRIRVRPPRLPRPRPRPKDMPRP | -0.272 |
| RRIRHRPPRLPRPRPRPGMPPRP | 0.47 |
| RRIRDRPPRLPRPRPRPVEDPRP | 0.429 |
| RRIRWRPPRLPRPRPRPAHQPRP | 0.176 |
| RRIRVRPPRLPRPRPRPYWQPRP | -0.0663 |
| RRIRARPPRLPRPRPRPHRAPRP | 0.216 |
| RRIRQRPPRLPRPRPRPNNGPRP | -0.361 |
| RRIRYRPPRLPRPRPRPMTVPRP | -0.0212 |
| RRIRVRPPRLPRPRPRPTIVPRP | -0.497 |
| RRIRGRPPRLPRPRPRPRPLPRP | 0.902 |
| RRIRDRPPRLPRPRPRPCNPPRP | -0.13 |

| Sequence | shrunken log2 fold change |
| --- | --- |
| RRIRCRPPRLPRPRPRPQTQPRP | 0.308 |
| RRIRWRPPRLPRPRPRPYNCPRP | -0.331 |
| RRIRCRPPRLPRPRPRPVQFPRP | 0.13 |
| RRIRSRPPRLPRPRPRPNIQPRP | -0.28 |
| RRIRIRPPRLPRPRPRPFVSPRP | -0.571 |
| RRIRPRPPRLPRPRPRPVIHPRP | -0.435 |
| RRIRVRPPRLPRPRPRPRDEPRP | 2.79 |
| RRIRQRPPRLPRPRPRPQLVPRP | 0.128 |
| RRIRDRPPRLPRPRPRPHFSPRP | -0.0977 |
| RRIRCRPPRLPRPRPRPFDHPRP | 0.0529 |
| RRIRTRPPRLPRPRPRPMWMPRP | -0.177 |
| RRIRERPPRLPRPRPRPRPQPRP | 0.61 |
| RRIRARPPRLPRPRPRPPNMPRP | -0.0722 |
| RRIRVRPPRLPRPRPRPCPRPRP | 0.368 |
| RRIRNRPPRLPRPRPRPRAEPRP | 0.103 |
| RRIRPRPPRLPRPRPRPWIPPRP | -0.225 |
| RRIRYRPPRLPRPRPRPRFKPRP | -0.302 |
| RRIRMRPPRLPRPRPRPVVMPRP | -0.0363 |
| RRIRGRPPRLPRPRPRPQCKPRP | 0.165 |
| RRIRGRPPRLPRPRPRPGTNPRP | 0.133 |
